Experimental data taken from PMC3081413.

How the values were obtained:
[1] = target: hIKKβ KD-ULD-SDD region (1–678) (human) (UniProt O14920); assay: SEC
[2] = target: hIKKβ W655D/L658D, purified (human) (UniProt O14920); assay: AUC
[3] = target: WT IKKβ (hIKKβ, parent of the purified dimerization mutants of Figure 5c) (human) (UniProt O14920); assay: AUC
[4] = target: Full-length hIKKβ (1–756) (human) (UniProt O14920); assay: SEC
[5] = target: GST-IκBα (1–317) (UniProt P25963)
Sequence of UniProt P25963 (P25963 whole entry): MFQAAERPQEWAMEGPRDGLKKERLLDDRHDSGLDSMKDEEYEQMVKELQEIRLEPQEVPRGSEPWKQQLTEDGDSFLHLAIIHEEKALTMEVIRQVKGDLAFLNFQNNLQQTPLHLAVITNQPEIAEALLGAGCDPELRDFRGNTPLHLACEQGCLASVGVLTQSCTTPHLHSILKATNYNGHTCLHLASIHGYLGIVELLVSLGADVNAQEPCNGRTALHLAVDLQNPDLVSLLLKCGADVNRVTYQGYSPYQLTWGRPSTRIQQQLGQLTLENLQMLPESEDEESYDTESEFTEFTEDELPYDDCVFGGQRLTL

hIKKβ KD-ULD-SDD region (1–678) (from UniProt O14920 1-678) (domain or fragment)
stoichiometry N [1]: 2

hIKKβ W655D/L658D, purified (from UniProt O14920 1-756) (enzyme)
fold weaker dimerization affinity than WT [2]: 167 fold

WT IKKβ (hIKKβ, parent of the purified dimerization mutants of Figure 5c) (from UniProt O14920 1-756) (enzyme)
stoichiometry N [3]: 2

Full-length hIKKβ (1–756) (from UniProt O14920 1-756) (enzyme)
stoichiometry N [4]: 2 | relative Vmax of phosphorylation of full-length IκBα by IKKβ EE [5]: 502 a.u.
